Reference: IntAct's records for PubMed 29997244

B1: DnaJ homolog subfamily C member 5 (Homo sapiens), Q9H3Z4 (parent)
chain: MADQRQRSLSTSGESLYHVLGLDKNATSDDIKKSYRKLALKYHPDKNPDNPEAADKFKEINNAHAILTDATKRNIYDKYGSLGLYVAEQFGEENVNTYFVLSSWWAKALFVFCGLLTCCYCCCCLCCCFNCCCGKCKPKAPEGEETEFYVSPEDLEAQLQSDEREATDTPIVIQPASATETTQLTADSHPSYHTDGFN
partner: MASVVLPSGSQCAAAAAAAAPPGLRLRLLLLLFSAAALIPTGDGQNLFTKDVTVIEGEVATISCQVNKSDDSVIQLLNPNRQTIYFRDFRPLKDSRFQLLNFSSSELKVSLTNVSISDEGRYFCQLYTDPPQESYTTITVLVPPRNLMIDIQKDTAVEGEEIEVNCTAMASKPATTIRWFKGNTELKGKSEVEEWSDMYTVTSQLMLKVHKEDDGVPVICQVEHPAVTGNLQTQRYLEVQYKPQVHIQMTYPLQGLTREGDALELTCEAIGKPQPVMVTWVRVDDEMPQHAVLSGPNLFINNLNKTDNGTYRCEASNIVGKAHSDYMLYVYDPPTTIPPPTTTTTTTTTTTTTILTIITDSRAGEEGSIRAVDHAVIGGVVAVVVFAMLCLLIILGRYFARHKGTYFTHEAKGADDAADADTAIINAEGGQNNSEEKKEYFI
B2: DnaJ homolog subfamily C member 5 (Homo sapiens), Q9H3Z4 (parent)
chain: B1 chain
partner: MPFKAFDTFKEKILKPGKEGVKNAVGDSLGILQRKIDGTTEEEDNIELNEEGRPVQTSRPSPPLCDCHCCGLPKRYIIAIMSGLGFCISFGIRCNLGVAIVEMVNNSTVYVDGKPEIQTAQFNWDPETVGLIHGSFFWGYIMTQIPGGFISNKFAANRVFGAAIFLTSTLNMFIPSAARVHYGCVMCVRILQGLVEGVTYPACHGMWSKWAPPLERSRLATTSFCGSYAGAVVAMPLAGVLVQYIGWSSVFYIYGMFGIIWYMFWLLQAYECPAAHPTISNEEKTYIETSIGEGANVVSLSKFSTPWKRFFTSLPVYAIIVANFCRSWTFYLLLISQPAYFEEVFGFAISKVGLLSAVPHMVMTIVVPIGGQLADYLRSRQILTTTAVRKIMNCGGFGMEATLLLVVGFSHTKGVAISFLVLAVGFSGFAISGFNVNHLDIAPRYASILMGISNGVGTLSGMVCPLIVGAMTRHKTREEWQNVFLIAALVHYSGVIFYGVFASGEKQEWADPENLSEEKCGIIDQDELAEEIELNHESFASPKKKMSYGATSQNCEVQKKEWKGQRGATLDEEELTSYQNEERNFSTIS
B3: DnaJ homolog subfamily C member 5 (Homo sapiens), Q9H3Z4 (parent)
chain: B1 chain
partner: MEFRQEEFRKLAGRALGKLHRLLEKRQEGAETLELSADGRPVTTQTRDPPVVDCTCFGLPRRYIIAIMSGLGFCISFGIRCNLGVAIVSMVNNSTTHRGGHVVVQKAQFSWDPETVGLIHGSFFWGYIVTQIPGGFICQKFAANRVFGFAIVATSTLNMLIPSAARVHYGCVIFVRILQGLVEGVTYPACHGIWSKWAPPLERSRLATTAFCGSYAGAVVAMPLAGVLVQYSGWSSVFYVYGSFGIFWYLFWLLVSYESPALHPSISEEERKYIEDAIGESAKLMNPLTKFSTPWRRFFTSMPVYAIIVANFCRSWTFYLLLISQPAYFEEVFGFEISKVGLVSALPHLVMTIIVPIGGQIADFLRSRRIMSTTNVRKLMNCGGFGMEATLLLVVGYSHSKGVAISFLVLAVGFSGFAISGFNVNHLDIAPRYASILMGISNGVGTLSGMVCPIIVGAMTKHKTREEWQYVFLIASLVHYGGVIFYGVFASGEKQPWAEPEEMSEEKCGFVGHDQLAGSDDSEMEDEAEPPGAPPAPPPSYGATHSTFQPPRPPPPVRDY
B4: DnaJ homolog subfamily C member 5 (Homo sapiens), Q9H3Z4 (parent)
chain: B1 chain
partner: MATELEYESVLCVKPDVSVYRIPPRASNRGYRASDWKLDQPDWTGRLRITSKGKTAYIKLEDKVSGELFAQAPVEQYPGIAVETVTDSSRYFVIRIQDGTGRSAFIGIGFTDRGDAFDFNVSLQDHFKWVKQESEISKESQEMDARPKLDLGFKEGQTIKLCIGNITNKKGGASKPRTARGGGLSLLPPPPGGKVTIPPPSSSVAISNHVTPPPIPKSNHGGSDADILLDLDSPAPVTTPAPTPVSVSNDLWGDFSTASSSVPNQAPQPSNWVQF
B5: DnaJ homolog subfamily C member 5 (Homo sapiens), Q9H3Z4 (parent)
chain: B1 chain
partner: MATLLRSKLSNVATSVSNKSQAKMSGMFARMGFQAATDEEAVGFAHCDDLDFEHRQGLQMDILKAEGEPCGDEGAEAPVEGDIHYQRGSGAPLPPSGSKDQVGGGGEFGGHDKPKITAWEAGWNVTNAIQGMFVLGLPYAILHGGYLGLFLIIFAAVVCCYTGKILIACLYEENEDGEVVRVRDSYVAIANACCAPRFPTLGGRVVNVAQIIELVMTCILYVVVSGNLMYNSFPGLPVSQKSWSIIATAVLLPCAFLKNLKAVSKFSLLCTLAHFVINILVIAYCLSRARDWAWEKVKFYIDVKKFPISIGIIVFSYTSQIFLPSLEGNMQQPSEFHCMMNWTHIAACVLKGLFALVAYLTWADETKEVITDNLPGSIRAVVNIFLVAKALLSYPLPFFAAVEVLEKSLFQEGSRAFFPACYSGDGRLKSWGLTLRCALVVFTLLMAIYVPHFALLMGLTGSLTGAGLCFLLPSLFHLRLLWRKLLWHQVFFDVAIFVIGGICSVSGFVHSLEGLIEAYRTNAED
B6: DnaJ homolog subfamily C member 5 (Homo sapiens), Q9H3Z4 (parent)
chain: B1 chain
partner: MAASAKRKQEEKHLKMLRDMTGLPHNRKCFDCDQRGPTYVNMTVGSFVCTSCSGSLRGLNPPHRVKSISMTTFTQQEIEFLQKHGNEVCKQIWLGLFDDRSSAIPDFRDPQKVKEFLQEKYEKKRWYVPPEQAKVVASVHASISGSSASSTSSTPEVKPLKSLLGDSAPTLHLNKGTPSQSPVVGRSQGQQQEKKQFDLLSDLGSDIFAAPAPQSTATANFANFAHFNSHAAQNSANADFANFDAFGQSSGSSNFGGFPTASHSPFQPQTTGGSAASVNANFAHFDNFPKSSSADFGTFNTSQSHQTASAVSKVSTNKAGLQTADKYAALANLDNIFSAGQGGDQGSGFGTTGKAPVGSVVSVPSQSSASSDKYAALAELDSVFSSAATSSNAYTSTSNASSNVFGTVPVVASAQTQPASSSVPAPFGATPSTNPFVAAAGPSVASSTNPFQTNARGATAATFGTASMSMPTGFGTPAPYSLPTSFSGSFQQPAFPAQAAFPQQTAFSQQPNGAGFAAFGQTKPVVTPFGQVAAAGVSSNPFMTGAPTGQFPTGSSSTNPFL
B7: DnaJ homolog subfamily C member 5 (Homo sapiens), Q9H3Z4 (parent)
chain: B1 chain
partner: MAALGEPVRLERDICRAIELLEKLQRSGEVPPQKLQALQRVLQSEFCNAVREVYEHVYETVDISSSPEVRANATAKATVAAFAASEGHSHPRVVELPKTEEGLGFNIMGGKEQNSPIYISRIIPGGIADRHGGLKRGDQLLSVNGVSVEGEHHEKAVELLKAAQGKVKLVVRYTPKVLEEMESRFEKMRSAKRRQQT
B8: DnaJ homolog subfamily C member 5 (Homo sapiens), Q9H3Z4 (parent)
chain: B1 chain
partner: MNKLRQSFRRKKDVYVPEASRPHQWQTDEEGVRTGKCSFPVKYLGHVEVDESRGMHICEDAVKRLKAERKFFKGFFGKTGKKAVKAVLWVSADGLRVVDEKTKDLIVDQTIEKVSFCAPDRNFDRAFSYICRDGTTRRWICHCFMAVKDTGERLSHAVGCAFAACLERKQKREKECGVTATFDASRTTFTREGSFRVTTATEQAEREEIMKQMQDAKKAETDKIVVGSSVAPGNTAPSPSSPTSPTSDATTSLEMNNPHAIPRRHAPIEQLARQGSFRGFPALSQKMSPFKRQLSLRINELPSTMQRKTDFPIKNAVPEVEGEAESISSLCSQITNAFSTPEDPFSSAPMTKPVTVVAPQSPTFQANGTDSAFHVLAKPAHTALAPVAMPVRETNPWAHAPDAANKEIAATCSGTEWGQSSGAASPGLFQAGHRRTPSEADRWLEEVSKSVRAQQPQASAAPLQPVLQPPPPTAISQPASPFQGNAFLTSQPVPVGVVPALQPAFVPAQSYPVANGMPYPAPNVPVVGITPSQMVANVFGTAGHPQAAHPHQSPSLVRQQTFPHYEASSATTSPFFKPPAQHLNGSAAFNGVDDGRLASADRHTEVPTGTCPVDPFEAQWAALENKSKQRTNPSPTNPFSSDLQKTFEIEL
B9: DnaJ homolog subfamily C member 5 (Homo sapiens), Q9H3Z4 (parent)
chain: B1 chain
partner: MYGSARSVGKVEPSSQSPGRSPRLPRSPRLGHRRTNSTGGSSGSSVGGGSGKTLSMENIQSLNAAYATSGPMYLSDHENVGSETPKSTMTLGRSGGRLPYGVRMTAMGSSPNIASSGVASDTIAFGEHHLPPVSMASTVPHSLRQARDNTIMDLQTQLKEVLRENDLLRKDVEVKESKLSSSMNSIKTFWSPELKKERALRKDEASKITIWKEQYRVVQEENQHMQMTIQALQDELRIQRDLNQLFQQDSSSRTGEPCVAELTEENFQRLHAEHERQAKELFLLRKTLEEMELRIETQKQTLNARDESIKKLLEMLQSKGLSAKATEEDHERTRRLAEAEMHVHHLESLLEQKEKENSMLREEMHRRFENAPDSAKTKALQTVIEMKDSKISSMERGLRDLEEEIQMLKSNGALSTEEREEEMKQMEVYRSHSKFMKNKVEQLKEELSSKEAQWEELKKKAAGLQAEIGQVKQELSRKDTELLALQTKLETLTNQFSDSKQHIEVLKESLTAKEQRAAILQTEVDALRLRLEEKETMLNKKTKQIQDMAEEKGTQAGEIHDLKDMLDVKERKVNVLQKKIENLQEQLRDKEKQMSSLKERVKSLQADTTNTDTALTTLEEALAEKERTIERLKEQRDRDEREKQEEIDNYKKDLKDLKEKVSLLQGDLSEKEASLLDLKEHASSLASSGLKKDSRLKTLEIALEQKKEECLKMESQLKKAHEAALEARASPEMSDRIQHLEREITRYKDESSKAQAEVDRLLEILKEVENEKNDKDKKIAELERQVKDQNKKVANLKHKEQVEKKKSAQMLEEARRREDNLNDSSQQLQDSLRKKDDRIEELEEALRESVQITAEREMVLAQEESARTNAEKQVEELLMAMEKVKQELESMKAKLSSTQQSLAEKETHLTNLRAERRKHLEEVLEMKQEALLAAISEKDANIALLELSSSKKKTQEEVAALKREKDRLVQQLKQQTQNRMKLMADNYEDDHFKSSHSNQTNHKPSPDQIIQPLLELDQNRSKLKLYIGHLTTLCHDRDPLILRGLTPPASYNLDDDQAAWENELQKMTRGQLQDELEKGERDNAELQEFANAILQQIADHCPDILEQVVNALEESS

Variants of: B1
Conditions: with cadm1_human CADM1, Q9BY67

effect of a mutation on the interaction | Variant
decreasing interaction strength | L115R

Variants of: B2
Conditions: with vglu3_human SLC17A8, Q8NDX2

effect of a mutation on the interaction | Variant
with no effect | L115R

Variants of: B3
Conditions: with vglu1_human SLC17A7, Q9P2U7

effect of a mutation on the interaction | Variant
with no effect | L115R

Variants of: B4
Conditions: with necp1_human NECAP1, Q8NC96

effect of a mutation on the interaction | Variant
with no effect | L115R

Variants of: B5
Conditions: with viaat_human SLC32A1, Q9H598

effect of a mutation on the interaction | Variant
with no effect | L115R

Variants of: B6
Conditions: with agfg1_human AGFG1, P52594

effect of a mutation on the interaction | Variant
with no effect | L115R

Variants of: B7
Conditions: with lin7c_human LIN7C

effect of a mutation on the interaction | Variant
with no effect | L115R

Variants of: B8
Conditions: with numb_human NUMB

effect of a mutation on the interaction | Variant
with no effect | L115R

Variants of: B9
Conditions: with rb6i2_human ERC1, Q8IUD2

effect of a mutation on the interaction | Variant
with no effect | L115R
